Results taken from patent US20240002509A1.

Target: human FcγR1A (human) (UniProt P12314)
Test: SPR (Biacore T200), antibody amine-coupled on CM5 (~950 RU), receptor as analyte, 25 C

UniProt P12314, sequence (P12314 16-288 limits assumed): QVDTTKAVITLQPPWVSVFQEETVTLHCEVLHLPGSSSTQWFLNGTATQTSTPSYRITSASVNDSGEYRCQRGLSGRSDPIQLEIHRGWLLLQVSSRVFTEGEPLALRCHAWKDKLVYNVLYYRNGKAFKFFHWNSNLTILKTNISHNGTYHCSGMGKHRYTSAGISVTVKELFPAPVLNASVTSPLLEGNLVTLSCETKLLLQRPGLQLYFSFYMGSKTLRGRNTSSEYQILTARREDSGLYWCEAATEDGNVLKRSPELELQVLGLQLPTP

Substance	Maximum response at 100 nM hFcgammaRIA (RU)
DANAPA-IgG1 (D265A/N297A/P329A) anti-CD3 antibody	11
DAPASK-IgG1 (D265A/P329A/S267K) anti-CD3 antibody	13
GADAPA-IgG1 (G237A/D265A/P329A) anti-CD3 antibody	16
GADAPASK-IgG1 (G237A/D265A/P329A/S267K) anti-CD3 antibody	10
LALAGA-IgG1 (L234A/L235A/G237A) anti-CD3 antibody	15
LALAPG-IgG1 (L234A/L235A/P329G) anti-CD3 antibody	18
LALASKPA-IgG1 (L234A/L235A/S267K/P329A) anti-CD3 antibody	9
